In PMC8564274 (Signal Transduction and Targeted Therapy, 2021):

Target: SARS-CoV-2 receptor-binding domain (RBD) (SARS-CoV-2, UniProt P0DTC2)
Test: BLI
Conditions: both partners purified

B1: CB6 (antibody, V domains shown)
VH: EVQLVESGGGLVQPGGSLRLSCAASGFTVSSNYMSWVRQAPGKGLEWVSVIYSGGSTFYADSVKGRFTISRDNSMNTLFLQMNSLRAEDTAVYYCARVLPMYGDYLDYWGQGTLVTVSS
VL: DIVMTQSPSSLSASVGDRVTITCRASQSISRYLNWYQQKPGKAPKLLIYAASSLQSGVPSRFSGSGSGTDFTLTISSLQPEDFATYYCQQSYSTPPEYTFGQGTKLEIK
- binding result: binds
